Among the targets are DYRK2 (h) (human) (UniProt Q92630); FGFR1(V561M) (h) (human) (UniProt P11362); IR (h) (human) (UniProt P06213); PKA (h) (human) (UniProt P17612); PKCα (h) (human) (UniProt P17252); PRK2 (h) (human) (UniProt Q16513); ZIPK (h) (human) (UniProt O43293).
Common to all, as to experiment: cell-based or functional assay
For another assay, the target named is T1, EphA3 (h) (human) (UniProt P29320).
T1 sequence (looked up): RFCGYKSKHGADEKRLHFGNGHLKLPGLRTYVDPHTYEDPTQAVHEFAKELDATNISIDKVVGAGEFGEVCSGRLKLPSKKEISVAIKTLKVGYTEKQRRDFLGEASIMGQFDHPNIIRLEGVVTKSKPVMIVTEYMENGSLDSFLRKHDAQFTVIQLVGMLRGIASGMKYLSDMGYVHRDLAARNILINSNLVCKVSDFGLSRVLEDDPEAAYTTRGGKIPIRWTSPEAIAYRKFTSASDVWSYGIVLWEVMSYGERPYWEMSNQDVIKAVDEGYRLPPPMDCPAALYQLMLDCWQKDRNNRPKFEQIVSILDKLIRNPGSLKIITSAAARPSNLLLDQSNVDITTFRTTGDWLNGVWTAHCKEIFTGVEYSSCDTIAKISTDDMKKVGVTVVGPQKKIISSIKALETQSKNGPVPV

Assay [1] deals with Mitogen-Activated Protein Kinase-Activated Protein Kinase 2 (human) (UniProt P49137).
Assay [2] deals with Mitogen-Activated Protein Kinase-Activated Protein Kinase 3 (human) (UniProt Q16644).
The target in the next assay is T2, PhKγ2 (h) (human) (UniProt P15735).
T2 sequence (looked up): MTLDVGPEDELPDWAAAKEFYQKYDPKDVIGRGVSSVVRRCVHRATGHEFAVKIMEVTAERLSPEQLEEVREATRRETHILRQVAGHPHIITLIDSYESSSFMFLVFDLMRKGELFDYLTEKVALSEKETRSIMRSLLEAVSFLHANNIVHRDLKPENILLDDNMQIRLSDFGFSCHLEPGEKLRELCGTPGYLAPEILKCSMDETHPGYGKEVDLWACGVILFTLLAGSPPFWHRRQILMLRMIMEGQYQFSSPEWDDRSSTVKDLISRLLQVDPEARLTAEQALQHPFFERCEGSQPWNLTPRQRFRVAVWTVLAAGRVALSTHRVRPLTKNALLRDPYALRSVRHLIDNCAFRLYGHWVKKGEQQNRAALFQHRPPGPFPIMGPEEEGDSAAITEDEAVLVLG

Another assay deals with T3, TAO3 (h) (human) (UniProt Q9H2K8).
T3 sequence (looked up): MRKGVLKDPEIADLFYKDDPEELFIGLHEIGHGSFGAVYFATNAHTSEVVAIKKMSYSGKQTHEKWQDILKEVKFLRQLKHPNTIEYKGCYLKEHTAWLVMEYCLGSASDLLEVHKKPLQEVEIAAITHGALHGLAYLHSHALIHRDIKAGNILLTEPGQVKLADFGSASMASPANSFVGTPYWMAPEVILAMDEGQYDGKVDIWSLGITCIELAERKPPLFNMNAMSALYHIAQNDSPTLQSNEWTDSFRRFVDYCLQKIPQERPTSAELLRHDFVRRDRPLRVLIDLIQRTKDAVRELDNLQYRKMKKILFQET

Another assay deals with T4, ULK2 (h) (human) (UniProt Q8IYT8).
T4 sequence (looked up): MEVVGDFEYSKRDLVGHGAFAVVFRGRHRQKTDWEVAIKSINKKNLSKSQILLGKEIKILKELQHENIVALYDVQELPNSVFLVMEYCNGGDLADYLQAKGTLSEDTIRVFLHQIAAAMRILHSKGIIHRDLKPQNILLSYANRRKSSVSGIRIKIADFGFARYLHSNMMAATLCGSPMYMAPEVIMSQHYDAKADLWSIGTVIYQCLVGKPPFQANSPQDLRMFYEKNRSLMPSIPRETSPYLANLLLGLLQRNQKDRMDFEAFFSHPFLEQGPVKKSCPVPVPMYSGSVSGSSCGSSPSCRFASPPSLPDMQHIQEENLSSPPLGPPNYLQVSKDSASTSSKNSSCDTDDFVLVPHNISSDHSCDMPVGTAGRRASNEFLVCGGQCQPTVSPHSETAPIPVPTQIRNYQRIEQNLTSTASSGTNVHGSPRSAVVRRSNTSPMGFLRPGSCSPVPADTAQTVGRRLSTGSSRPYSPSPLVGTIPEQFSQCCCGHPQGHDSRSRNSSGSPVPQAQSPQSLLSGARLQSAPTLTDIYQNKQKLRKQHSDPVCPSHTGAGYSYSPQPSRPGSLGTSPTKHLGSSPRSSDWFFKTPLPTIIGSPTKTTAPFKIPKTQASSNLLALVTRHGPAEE

Chain of FGFR1(V561M) (h) (human) (P11362 456-765 V561M limits assumed): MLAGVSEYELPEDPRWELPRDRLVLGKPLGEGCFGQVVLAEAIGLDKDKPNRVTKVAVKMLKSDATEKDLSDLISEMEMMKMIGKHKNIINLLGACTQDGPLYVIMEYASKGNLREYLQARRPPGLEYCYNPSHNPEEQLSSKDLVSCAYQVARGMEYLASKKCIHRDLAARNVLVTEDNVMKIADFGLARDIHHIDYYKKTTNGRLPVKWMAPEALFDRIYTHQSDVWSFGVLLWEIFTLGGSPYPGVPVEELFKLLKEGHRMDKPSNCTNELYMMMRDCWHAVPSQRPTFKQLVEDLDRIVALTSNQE
Chain of IR (h) (human) (P06213 1005-1310 limits assumed): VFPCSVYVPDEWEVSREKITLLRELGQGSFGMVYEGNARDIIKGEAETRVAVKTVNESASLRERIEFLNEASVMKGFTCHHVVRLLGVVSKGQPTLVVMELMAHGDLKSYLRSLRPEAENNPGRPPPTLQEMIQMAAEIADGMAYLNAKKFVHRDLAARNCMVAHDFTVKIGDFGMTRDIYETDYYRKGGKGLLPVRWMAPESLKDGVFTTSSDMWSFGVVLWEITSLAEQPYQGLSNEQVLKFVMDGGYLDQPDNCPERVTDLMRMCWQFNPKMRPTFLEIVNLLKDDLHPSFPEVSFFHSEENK

For MMI-0300 (peptide), the % activity at 100 µM was 155% in the assay with DYRK2 (h) (human); 6% with EphA3 (h) (human); 74% with FGFR1(V561M) (h) (human); 96% with IR (h) (human); 5% in [1]; 3% in assay [2]. In addition, the % activity at 100 µM with PKA (h) (human) stood at 119%; with PKCα (h) (human), 89%; with PRK2 (h) (human), 33%; with PhKγ2 (h) (human), 46%; with TAO3 (h) (human), 77%; in the assay with ULK2 (h) (human), 122%. Further, in the assay with ZIPK (h) (human), the % activity at 100 µM came to 28%.

The values above are taken from US20160136234A1.
